T1: MexA (Pseudomonas aeruginosa), P52477
T1 chain: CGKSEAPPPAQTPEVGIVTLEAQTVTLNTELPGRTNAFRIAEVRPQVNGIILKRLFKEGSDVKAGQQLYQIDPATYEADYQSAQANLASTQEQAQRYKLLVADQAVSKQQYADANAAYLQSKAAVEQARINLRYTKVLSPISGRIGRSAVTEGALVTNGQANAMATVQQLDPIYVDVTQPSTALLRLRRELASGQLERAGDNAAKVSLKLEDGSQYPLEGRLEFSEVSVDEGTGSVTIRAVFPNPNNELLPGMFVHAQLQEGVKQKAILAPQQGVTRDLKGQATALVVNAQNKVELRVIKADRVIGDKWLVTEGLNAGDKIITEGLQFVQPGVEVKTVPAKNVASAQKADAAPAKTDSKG

B1: MexA, P52477 24-383 (natural protein)
chain: T1 chain
modifications: here or on the partner: lipid moiety of the N-terminal cysteine; lipid moiety of the N-terminal cysteine
B2: MexA (natural protein)
chain: T1 chain
modifications: lipid moiety of the N-terminal cysteine
notes: MexA, periplasmic membrane fusion lipoprotein of Pseudomonas aeruginosa; N-terminal cysteine carries a lipid moiety; Six copies (a hexamer of two non-equivalent protomers, MexA-I and MexA-II) stand in the tripartite complex; also called MexA-I; MexA-II; source: reconstituted with MexB in POPC nanodiscs or DOPC/cholesterol proteoliposomes
B3: OprM (natural protein)
chain: CSLIPDYQRPEAPVAAAYPQGQAYGQNTGAAAVPAADIGWREFFRDPQLQQLIGVALENNRDLRVAALNVEAFRAQYRIQRADLFPRIGVDGSGTRQRLPGDLSTTGSPAISSQYGVTLGTTAWELDLFGRLRSLRDQALEQYLATEQAQRSAQTTLVASVATAYLTLKADQAQLQLTKDTLGTYQKSFDLTQRSYDVGVASALDLRQAQTAVEGARATLAQYTRLVAQDQNALVLLLGSGIPANLPQGLGLDQTLLTEVPAGLPSDLLQRRPDILEAEHQLMAANASIGAARAAFFPSISLTANAGTMSRQLSGLFDAGSGSWLFQPSINLPIFTAGSLRASLDYAKIQKDINVAQYEKAIQTAFQEVADGLAARGTFTEQLQAQRDLVKASDEYYQLADKRYRTGVDNYLTLLDAQRSLFTAQQQLITDRLNQLTSEVNLYKALGGGWNQQTVTQQQTAKKEDPQA
notes: OprM, outer-membrane factor of the MexAB-OprM efflux system of Pseudomonas aeruginosa; Homotrimer; also called OprM-ND; outer-membrane factor (OMF); source: reconstituted in POPC nanodiscs (MSP1D1) or DOPC proteoliposomes
B4: MexB (natural protein)
chain: MSKFFIDRPIFAWVIALVIMLAGGLSILSLPVNQYPAIAPPAIAVQVSYPGASAETVQDTVVQVIEQQMNGIDNLRYISSESNSDGSMTITVTFEQGTDPDIAQVQVQNKLQLATPLLPQEVQRQGIRVTKAVKNFLMVVGVVSTDGSMTKEDLSNYIVSNIQDPLSRTKGVGDFQVFGSQYSMRIWLDPAKLNSYQLTPGDVSSAIQAQNVQISSGQLGGLPAVKGQQLNATIIGKTRLQTAEQFENILLKVNPDGSQVRLKDVADVGLGGQDYSINAQFNGSPASGIAIKLATGANALDTAKAIRQTIANLEPFMPQGMKVVYPYDTTPVVSASIHEVVKTLGEAILLVFLVMYLFLQNFRATLIPTIAVPVVLLGTFGVLAAFGFSINTLTMFGMVLAIGLLVDDAIVVVENVERVMAEEGLSPREAARKSMGQIQGALVGIAMVLSAVFLPMAFFGGSTGVIYRQFSITIVSAMALSVIVALILTPALCATMLKPIEKGDHGEHKGGFFGWFNRMFLSTTHGYERGVASILKHRAPYLLIYVVIVAGMIWMFTRIPTAFLPDEDQGVLFAQVQTPPGSSAERTQVVVDSMREYLLEKESSSVSSVFTVTGFNFAGRGQSSGMAFIMLKPWEERPGGENSVFELAKRAQMHFFSFKDAMVFAFAPPSVLELGNATGFDLFLQDQAGVGHEVLLQARNKFLMLAAQNPALQRVRPNGMSDEPQYKLEIDDEKASALGVSLADINSTVSIAWGSSYVNDFIDRGRVKRVYLQGRPDARMNPDDLSKWYVRNDKGEMVPFNAFATGKWEYGSPKLERYNGVPAMEILGEPAPGLSSGDAMAAVEEIVKQLPKGVGYSWTGLSYEERLSGSQAPALYALSLLVVFLCLAALYESWSIPFSVMLVVPLGVIGALLATSMRGLSNDVFFQVGLLTTIGLSAKNAILIVEFAKELHEQGKGIVEAAIEACRMRLRPIVMTSLAFILGVVPLAISTGAGSGSQHAIGTGVIGGMVTATVLAIFWVPLFYVAVSTLFKDEASKQQASVEKGQ
notes: MexB, inner-membrane RND multidrug efflux transporter of Pseudomonas aeruginosa; wild type; Homotrimer, both alone in the nanodisc (MexB-solo, LTC form) and in the tripartite complex (MexB-trio, LTO form); also called MexB-solo; MexB-trio; source: reconstituted in POPC nanodiscs (MSP1E3D1) or DOPC/cholesterol proteoliposomes

Common to all, as to assay: cryo-EM structure; tripartite MexAB-OprM complex self-assembled from MexA and MexB in POPC nanodiscs and OprM in POPC nanodiscs; 10 mM Tris/Cl pH 7.4, 100 mM NaCl; enriched by SEC (Superose 6, detergent-free buffer); single-particle analysis, no symmetry imposed
In general terms: In gel filtration, larger molecules generally elute earlier.

Series [1] deals with T1, MexA (Pseudomonas aeruginosa), P52477. The note with it: remark: other sources report otherwise.
The series “OprM” concerns the target B3. The note with it: both partners purified.
Series [2] deals with the molecule itself.

The values below come from PMC7532149, “Antibiotic export by MexB multidrug efflux transporter is allosterically controlled by a MexA-OprM chaperone-like complex” (Nature Communications, 2020).

What is called stoichiometry N is a count of units in the complex or per binding partner. In series [1], B1 registered a stoichiometry N of 6. Turning to B2, in the series with OprM, the “stoichiometry N” value was determined as 2 MexA per OprM.

As for B3, in series [2], the “stoichiometry N” value was 3.

On to B4, for which the “stoichiometry N” value in series [2] came out at 3.
